# T1: GST-cleaved Kap95 (S. cerevisiae, UniProt Q06142 1-861)
# T1 construct: Kap95 (karyopherin-beta), S. cerevisiae; also called purified Kap95; untagged Kap95; source: recombinant, purified, GST cleaved
# T1 sequence (looked up): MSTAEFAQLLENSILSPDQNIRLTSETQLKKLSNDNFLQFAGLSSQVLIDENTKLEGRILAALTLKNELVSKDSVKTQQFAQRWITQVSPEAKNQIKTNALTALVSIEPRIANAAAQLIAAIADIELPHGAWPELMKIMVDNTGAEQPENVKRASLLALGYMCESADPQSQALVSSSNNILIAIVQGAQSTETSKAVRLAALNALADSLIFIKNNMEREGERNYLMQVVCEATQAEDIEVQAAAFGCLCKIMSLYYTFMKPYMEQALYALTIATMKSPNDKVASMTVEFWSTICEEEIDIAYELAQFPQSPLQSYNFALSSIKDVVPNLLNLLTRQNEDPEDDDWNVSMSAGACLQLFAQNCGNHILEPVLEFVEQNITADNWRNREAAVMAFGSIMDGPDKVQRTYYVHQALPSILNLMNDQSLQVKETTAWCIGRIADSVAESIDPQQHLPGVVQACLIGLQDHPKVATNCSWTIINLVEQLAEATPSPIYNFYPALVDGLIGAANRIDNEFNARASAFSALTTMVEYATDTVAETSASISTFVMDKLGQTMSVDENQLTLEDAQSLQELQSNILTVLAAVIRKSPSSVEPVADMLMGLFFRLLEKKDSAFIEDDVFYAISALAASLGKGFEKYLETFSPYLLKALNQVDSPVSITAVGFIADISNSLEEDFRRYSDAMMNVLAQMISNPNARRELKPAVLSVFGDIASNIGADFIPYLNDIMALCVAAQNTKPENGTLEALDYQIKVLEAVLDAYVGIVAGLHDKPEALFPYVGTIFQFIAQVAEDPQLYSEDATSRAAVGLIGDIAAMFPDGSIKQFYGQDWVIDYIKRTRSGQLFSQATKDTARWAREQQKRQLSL
# B1: Srp1-6His (natural protein, S. cerevisiae, UniProt Q02821 1-542, looked up)
# chain: MDNGTDSSTSKFVPEYRRTNFKNKGRFSADELRRRRDTQQVELRKAKRDEALAKRRNFIPPTDGADSDEEDESSVSADQQFYSQLQQELPQMTQQLNSDDMQEQLSATVKFRQILSREHRPPIDVVIQAGVVPRLVEFMRENQPEMLQLEAAWALTNIASGTSAQTKVVVDADAVPLFIQLLYTGSVEVKEQAIWALGNVAGDSTDYRDYVLQCNAMEPILGLFNSNKPSLIRTATWTLSNLCRGKKPQPDWSVVSQALPTLAKLIYSMDTETLVDACWAISYLSDGPQEAIQAVIDVRIPKRLVELLSHESTLVQTPALRAVGNIVTGNDLQTQVVINAGVLPALRLLLSSPKENIKKEACWTISNITAGNTEQIQAVIDANLIPPLVKLLEVAEYKTKKEACWAISNASSGGLQRPDIIRYLVSQGCIKPLCDLLEIADNRIIEVTLDALENILKMGEADKEARGLNINENADFIEKAGGMEKIFNCQQNENDKIYEKAYKIIETYFGEEEDAVDETMAPQNAGNTFGFGSNVNQQFNFN
# notes: Srp1 (Kap60, karyopherin-alpha), S. cerevisiae; pET42b-based plasmid; also called karyopherin-α; Kap60; source: also co-expressed with GST-Sts1 in E. coli extract; not shown: 6His, C-terminal, kept
# B2: full-length GST-Sts1 (natural protein, S. cerevisiae, UniProt P38637 1-319, looked up)
# chain: MMGFEWGFKPSSKITQSTVSSQGTGNVMIPTAGVKQKRRYANEEQEEEELPRNKNVMKYGGVSKRRPQPGSLIRGQPLPLQRGMELMNKNQLQQLLVDLMTKHPEIQQSVHTRVIGLDFSIQKCLDMLKQKSEAVYQSIPYNRSYESNKLDDYAFVRMKPQILEFLNCLVDFILDNIPPRLENLHASLKFLDICTELVIKLPRFELASNNYYYDKCIEQLSHVWCTLIEHVARDRIILLADNSSVWKSHMTRLQVYNEHSNGLLERPLQLFKSLDMGSPSAASSSTLSLQESIIYHHDTMTANENNNNSGSAATDSPFN
# notes: Sts1, S. cerevisiae, full length; also called FL; not shown: GST, N-terminal, kept
# Tests used:
# GST-cleaved Kap95 = target: T1, GST-cleaved Kap95; assay: pull-down; GST-Sts1 immobilised on GSH beads, incubated with equimolar Srp1-6His and GST-cleaved Kap95, 4 °C, 2 h; PBS, 0.1% Tween-20, 0.2 mM DTT, 0.2 mM PMSF; without Ran or then with four-fold molar excess of 6His-Gsp1GDP (complex largely intact); SDS-PAGE and protein staining; details: both partners purified
# Srp1-6His = target: B1; assay: as above; details: both partners purified
Binder,binding result (GST-cleaved Kap95),binding result (Srp1-6His)
B1,binds,–
B2,binds,binds

# From PMC10808114, “Yeast 26S proteasome nuclear import is coupled to nucleus-specific degradation of the karyopherin adaptor protein Sts1” (Scientific Reports, 2024)
